Earlier results in paper PMC5289555.

Columns and labels:
[1] = molecular target: Hsp90 zipped construct (Saccharomyces cerevisiae) (UniProt P02829)
[2] = molecular target: Hsp90 (Saccharomyces cerevisiae) (UniProt P02829)

Substance	Kd [1] [nM]	Kd [2] [nM]
Hsp90 zipped construct (from UniProt P02829)	< 0.001	
Hsp90 (from UniProt P02829)		60
